According to publication PMC4692482, “Structure and Stability of the Dimeric Triosephosphate Isomerase from the Thermophilic Archaeon Thermoplasma acidophilum” (PLoS ONE, 2015):

Target: the molecule itself
Assay: AUC; equilibrium sedimentation, 20 mM Tris-HCl pH 7.5, 200 mM NaCl, 20°C, 20,000 and 26,000 rpm, 12.6, 16.8 and 21.0 uM protein; data fit a homogeneous dimer model; reversible monomer-dimer and monomer-trimer models rejected

B1: triosephosphate isomerase from Thermoplasma acidophilum (enzyme, UniProt Q9HLB6 1-216, looked up)
chain: MYTAIVNLKTYREATGANFTRFMEKFEPVQGKFELIFSPSLLDLEKAAKCGKFRFFAQHVDAEPYGAYTGHVPMDMMIDLGITGSILNHSERRLPRDTIINTLKKASKLDFTIVLCVENAEEAKYFREYEPDFIAYEPRDLIGGDVSVSTAKPEIIEDIVKIYEGTGTSVLVGAGIKTGEDVRRSIGLGARGILVASGVVKSADPTKSLNSLIELK
notes: Cloned into pET-28a(+) with a C-terminal His6-tag; no tag removal is described; The monomer mass used for AUC is 24,671 daltons; The crystals with glycerol-3-phosphate (G3P) hold the same protein; also called TaTPI; apo-TaTPI; source: E. coli Rosetta 2(DE3)pLysS, purified (heat step 60°C, HiTrap Chelating, SEC, anion exchange, SEC)
B1 was tested, and the “stoichiometry N” value was 2.
